Measurements: patent publication US20150368338A1 (Janssen / Centocor, published 2015)
Where a chain is given by its changes, count along the chain named.

B1: IFWM3332 (antibody, IgG1, V domains shown)
VH: EVQLVQSGAEVKKPGESLKISCKGSGYSFTSYWIGWVRQMPGKGLEWMGIIDPSDSDTRYSPSFQGQVTISADKSISTAYLQWSSLKASDTAMYYCARHPGLNWAPDFDYWGQGTLVTVSS
VL: DIQMTQSPSSLSASVGDRVTITCRASQSIANTNLNWYQQKPGKAPKLLIHWASSLQSGVPSRFSGSGSGTDFTLTISSLQPEDFATYYCQQWYDNPLTFGQGTKVEIK
B2: IFWM3385 (antibody, IgG1, V domains shown)
VH: B1 VH with N103A
VL: DIQMTQSPSSLSASVGDRVTITCRASQSIGDFLNWYQQKPGKAPKLLIYFASSLQSGVPSRFSGSGSGTDFTLTISSLQPEDFATYYCQQALDFPLTFGQGTKVEIK
B3: IFWM3416 (antibody, IgG1, V domains shown)
VH: B1 VH with N103A
VL: B1 VL with A30R, W92G, N95T, L97F
B4: IFWM3410 (antibody, IgG1, V domains shown)
VH: B1 VH with N103A
VL: B1 VL
B5: IFWM3405 (antibody, IgG1, V domains shown)
VH: B1 VH with N103A
VL: B1 VL with T32N, W92G, N95T, L97F
B6: IFWM3400 (antibody, IgG1, V domains shown)
VH: B1 VH with N103A
VL: B2 VL with G30A, A91S, L92H, D93S
B7: IFWM3455 (antibody, V domains shown)
VH: B1 VH
VL: B2 VL with G30D, D31G, F32Y, A91S, L92Y, F94L, L96I
B8: IFWM3460 (antibody, V domains shown)
VH: B1 VH
VL: B2 VL with G30D, D31G, F50V, A91S, L92Y, F94L, L96I

The binders below were run against IFN-αWA (human, UniProt P05015 24-189) (assay: cell-based or functional assay).

Compared with B1, B2 is lower in “IC50 (pM), ISRE assay” value: 947 pM for the first, 839 pM for the second.

Going from B3 to B4, the “IC50 (pM), ISRE assay” value falls from 779 pM to 538 pM.

First: B5
Second: B6
The “IC50 (pM), ISRE assay” value of the first is lower: 216 pM for the first, 376 pM for the second.

These binders were tested against IFN-αI (human, UniProt P01571 24-189) (assay: cell-based or functional assay).

Going from B1 to B2, the “IC50 (pM), ISRE assay” value falls from 893 pM to 225 pM.

Compared with B3, B4 is higher in “IC50 (pM), ISRE assay” value: 158 pM for the first, 183 pM for the second.

First: B5
Second: B6
The “IC50 (pM), ISRE assay” value of the first is lower: 72 pM for the first, 137 pM for the second.

What follows are binders tested against IFN-αJ1 (human, UniProt P01567 24-189) (assay: cell-based or functional assay).

First: B1
Second: B2
The “IC50 (pM), ISRE assay” value of the first is higher: 487 pM for the first, 251 pM for the second.

Compared with B3, B4 is higher in “IC50 (pM), ISRE assay” value: 61 pM for the first, 217 pM for the second.

Going from B5 to B6, the “IC50 (pM), ISRE assay” value rises from 26 pM to 154 pM.

What follows are binders tested against IFN-α4a (human, UniProt P05014 24-189) (assay: cell-based or functional assay).

Compared with B1, B2 is lower in “IC50 (pM), ISRE assay” value: 519 pM for the first, 414 pM for the second.

Compared with B3, B4 is lower in “IC50 (pM), ISRE assay” value: 201 pM for the first, 192 pM for the second.

Compared with B5, B6 is higher in “IC50 (pM), ISRE assay” value: 86 pM for the first, 220 pM for the second.

Each binder was assayed against T1, human IFN-ω (human, UniProt P05000 24-195) (assay: cell-based or functional assay).

First: B1
Second: B2
The “IC50 (pM), ISRE assay” value of the first is higher: 228 pM for the first, 68 pM for the second.

Going from B3 to B4, the “IC50 (pM), ISRE assay” value rises from 40 pM to 89 pM.

Going from B5 to B6, the “IC50 (pM), ISRE assay” value rises from 19 pM to 29 pM.

These binders were tested against IFN-αK (human, UniProt P05013 24-189) (assay: cell-based or functional assay).

Compared with B1, B2 is lower in “IC50 (pM), ISRE assay” value: 76 pM for the first, 65 pM for the second.

First: B3
Second: B4
The “IC50 (pM), ISRE assay” value of the first is higher: 43 pM for the first, 41 pM for the second.

Going from B5 to B6, the “IC50 (pM), ISRE assay” value rises from 22 pM to 35 pM.

Target: T1, human IFN-ω
Assay: cell-based or functional assay
Remark: another data set of the same source

Going from B7 to B8, the “IC50 (pM), ISRE reporter gene assay” value rises from 24 pM to 43.5 pM.
